Measurements as given in article PMC9842190 (Seminars in immunology, 2022).

What was measured:
[1] = target: T1, Human C3b, site-specifically biotinylated at its thioester cysteine (human, UniProt P01024 23-667; P01024 749-1663); assay: SPR
[2] = target: T1, Human C3b, site-specifically …; assay: SPR; remark: listed apart in the source

T1 sequence (P01024 23-667, chain 1 of 2): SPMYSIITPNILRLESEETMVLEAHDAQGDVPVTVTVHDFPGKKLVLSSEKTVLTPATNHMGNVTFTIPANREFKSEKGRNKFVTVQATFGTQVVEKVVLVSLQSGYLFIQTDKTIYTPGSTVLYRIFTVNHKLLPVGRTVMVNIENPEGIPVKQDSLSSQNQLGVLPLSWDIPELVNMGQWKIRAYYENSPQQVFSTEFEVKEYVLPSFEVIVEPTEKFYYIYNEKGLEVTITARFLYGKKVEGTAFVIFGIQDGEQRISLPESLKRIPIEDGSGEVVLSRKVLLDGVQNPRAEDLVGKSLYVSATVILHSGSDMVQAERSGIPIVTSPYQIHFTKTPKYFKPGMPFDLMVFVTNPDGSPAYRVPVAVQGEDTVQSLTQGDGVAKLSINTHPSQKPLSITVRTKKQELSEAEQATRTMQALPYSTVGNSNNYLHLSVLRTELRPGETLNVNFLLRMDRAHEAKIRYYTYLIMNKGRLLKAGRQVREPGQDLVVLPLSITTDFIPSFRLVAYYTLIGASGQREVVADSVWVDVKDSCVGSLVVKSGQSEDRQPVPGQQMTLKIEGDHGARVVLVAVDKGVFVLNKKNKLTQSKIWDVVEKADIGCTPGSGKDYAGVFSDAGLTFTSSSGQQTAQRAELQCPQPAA
T1 sequence (P01024 749-1663, chain 2 of 2): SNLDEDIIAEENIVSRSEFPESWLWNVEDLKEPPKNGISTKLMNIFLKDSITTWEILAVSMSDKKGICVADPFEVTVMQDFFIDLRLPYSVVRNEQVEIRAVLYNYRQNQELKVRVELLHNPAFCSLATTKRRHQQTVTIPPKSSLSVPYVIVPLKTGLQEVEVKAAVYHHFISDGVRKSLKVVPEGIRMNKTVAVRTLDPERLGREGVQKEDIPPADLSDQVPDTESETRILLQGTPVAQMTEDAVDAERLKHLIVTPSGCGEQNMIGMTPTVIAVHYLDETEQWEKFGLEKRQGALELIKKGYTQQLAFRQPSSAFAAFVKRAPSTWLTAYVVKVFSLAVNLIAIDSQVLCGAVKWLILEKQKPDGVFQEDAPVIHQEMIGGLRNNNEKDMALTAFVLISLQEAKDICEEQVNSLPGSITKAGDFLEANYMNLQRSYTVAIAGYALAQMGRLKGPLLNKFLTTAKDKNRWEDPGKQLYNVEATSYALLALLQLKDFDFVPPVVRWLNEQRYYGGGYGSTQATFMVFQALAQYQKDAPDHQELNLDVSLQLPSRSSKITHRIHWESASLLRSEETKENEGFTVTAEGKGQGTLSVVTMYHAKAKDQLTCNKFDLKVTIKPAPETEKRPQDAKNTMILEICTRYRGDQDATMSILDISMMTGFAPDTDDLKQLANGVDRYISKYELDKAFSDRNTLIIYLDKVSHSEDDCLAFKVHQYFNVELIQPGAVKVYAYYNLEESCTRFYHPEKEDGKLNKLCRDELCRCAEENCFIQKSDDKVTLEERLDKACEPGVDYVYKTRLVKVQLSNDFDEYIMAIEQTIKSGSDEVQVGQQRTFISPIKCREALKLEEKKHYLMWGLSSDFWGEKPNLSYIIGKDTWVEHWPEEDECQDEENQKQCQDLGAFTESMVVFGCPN

Binder | binding result [1] | Kd [2] [nM] | half-life of the complex [2] [h] | koff [2] [s⁻¹]
CCP domains 19-20 of human Factor H (domain or fragment) GKCGPPPPIDNGDITSFPLSVYAPASSVEYQCQNLYQLEGNKRITCRNGQWSEPPKCLHPCVISREIMENYNIALRWTAKQKLYSRTGESVEFVCKRGYRLSSRSHTLRTTCWDGKLEYPTCAKR | binds |  |  | 
C-terminal domain of the Staphylococcus aureus immune evasion protein Efb (domain or fragment) TDATIKKEQKLIQAQNLVREFEKTHTVSAHRKAQKAVNLVSFEYKVKKMVLQERIDNVLKQGLV |  | 0.11 | ~1 | 0.000187
